Laboratory results published in the supplement of paper PMC10065799, “High-throughput profiling of sequence recognition by tyrosine kinases and SH2 domains using bacterial peptide display” (eLife, 2023).

What follows are sequences tested against FGFR3 (UniProt P22607) (assay: phosphorylation enrichment, bacterial display (enrichment ratio); higher = better substrate or ligand; peptides without Tyr show the background).
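Also: 11-residue human phosphosite peptides and single-mutation variants displayed on the E. coli surface, counted by deep sequencing, each peptide's frequency after selection divided by its frequency in the unselected input library; frequency after pTyr selection over input frequency; kinase dosed for 20-30% of maximal phosphorylation in three min.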

Chain of FGFR3 (P22607 whole entry, looked up): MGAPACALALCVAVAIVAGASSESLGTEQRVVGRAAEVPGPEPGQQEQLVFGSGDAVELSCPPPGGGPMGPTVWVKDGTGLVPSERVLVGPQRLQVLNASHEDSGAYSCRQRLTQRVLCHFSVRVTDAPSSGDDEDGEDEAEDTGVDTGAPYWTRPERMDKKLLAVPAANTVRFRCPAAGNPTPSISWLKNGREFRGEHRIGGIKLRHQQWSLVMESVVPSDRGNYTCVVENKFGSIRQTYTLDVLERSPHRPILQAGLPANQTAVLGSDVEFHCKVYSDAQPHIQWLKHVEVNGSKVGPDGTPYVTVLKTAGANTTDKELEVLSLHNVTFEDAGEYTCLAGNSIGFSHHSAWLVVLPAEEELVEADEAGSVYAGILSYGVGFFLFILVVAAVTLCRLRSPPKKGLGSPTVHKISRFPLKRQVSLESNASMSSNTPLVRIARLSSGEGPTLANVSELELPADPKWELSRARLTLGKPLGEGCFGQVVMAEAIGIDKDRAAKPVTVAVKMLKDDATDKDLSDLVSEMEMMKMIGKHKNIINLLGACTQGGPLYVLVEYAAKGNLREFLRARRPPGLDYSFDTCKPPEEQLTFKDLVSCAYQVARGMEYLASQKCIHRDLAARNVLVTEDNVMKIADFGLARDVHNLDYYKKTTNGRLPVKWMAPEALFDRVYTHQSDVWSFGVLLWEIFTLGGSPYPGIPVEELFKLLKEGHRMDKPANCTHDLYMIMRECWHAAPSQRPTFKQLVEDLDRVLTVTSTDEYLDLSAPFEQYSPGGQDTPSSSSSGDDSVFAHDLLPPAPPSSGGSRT

Point of comparison: SVMVPYEPPEV [TP53_Y220_V217M], phosphorylation enrichment 0.662. Against it:
- KGNMFYENSFA [EGFR_Y113_R108K_YF] — lower, 0.535
- RAIGHYSATSK [FAM120A_Y328_Y327H] — higher, 0.892
- HGTKVYIDPFT [EPHB4_Y590] — higher, 0.688
- DGTVHYVDEKG [IFT140_Y216] — higher, 0.83
- SKEPFYVHCIK [MYO1D_Y586_R588H_YF] — higher, 0.682
- MKGDFYRSLAE [YWHAG_Y131_Y133S_YF] — lower, 0.52
- RHTRSYDYMEG [FGF7_Y56] — lower, 0.529
- ASKEPYYVHCI [MYO1D_Y585_R588H] — higher, 1.36
- HNMPIYEGFAL [ACTA1_Y168_V165M_YF] — higher, 0.786
- LQEQNYLAVDS [FAM114A1_Y115] — higher, 3.19
- LTSKPYAFTAW [NDUFS1_Y236_R241W] — lower, 0.511
- CDYKKYGKGLR [ZNF445_Y433_Y428C] — lower, 0.445
- VRALTYCDLHK [KCNH2_Y827] — lower, 0.591
- HFGNNYRDVLQ [MACC1_Y803_YF] — higher, 0.68
- TPSGNYVACGG [GNB1_Y111_A106T] — lower, 0.436
- GHLYAYDWIRI [BEST1_Y227_S231R] — higher, 2.73
- RFVTRHIFNRE [HLA-DQB1_Y62_Y62H_YF] — lower, 0.658
- RHLQEYQDPLN [GFAP_Y349_L352P] — higher, 0.668
- VFGVSYDEFRF [CFTR_Y512_I507V_YF] — higher, 0.736
- KNNSIYVVANI [VNN1_Y134] — higher, 0.821
- RRGLLYDSDEE [MCM2_Y137] — higher, 1.3
- PRPAGYPSTVS [CACNA1C_Y1832] — lower, 0.446
- GGMTEYKLVVV [KRAS_Y4] — higher, 0.776
- HYEFKYVINAI [MAOA_Y268_C266F] — higher, 0.964
- DHAGEYGAEAL [HBA1_Y25_A20D] — lower, 0.621
- VKALKYKSMKI [ITGA11_Y1098_L1093V] — lower, 0.405
- DKATEYIQFMR [MAX_Y70_YF] — lower, 0.655
- AFPVSYSSSGA [RET_Y687] — lower, 0.406

Each sequence was assayed on Fer (mouse) in the same assay as above.

Point of comparison: RHTRSYDYMEG [FGF7_Y56], phosphorylation enrichment 0.533. Against it:
- KGNMFYENSFA [EGFR_Y113_R108K_YF] — higher, 1.8
- RAIGHYSATSK [FAM120A_Y328_Y327H] — higher, 0.542
- HGTKVYIDPFT [EPHB4_Y590] — lower, 0.426
- DGTVHYVDEKG [IFT140_Y216] — higher, 0.593
- SKEPFYVHCIK [MYO1D_Y586_R588H_YF] — lower, 0.467
- MKGDFYRSLAE [YWHAG_Y131_Y133S_YF] — lower, 0.467
- ASKEPYYVHCI [MYO1D_Y585_R588H] — lower, 0.506
- HNMPIYEGFAL [ACTA1_Y168_V165M_YF] — higher, 26.7
- LQEQNYLAVDS [FAM114A1_Y115] — higher, 4.67
- LTSKPYAFTAW [NDUFS1_Y236_R241W] — lower, 0.448
- CDYKKYGKGLR [ZNF445_Y433_Y428C] — lower, 0.318
- VRALTYCDLHK [KCNH2_Y827] — lower, 0.531
- HFGNNYRDVLQ [MACC1_Y803_YF] — higher, 0.558
- TPSGNYVACGG [GNB1_Y111_A106T] — lower, 0.415
- GHLYAYDWIRI [BEST1_Y227_S231R] — higher, 15.8
- RFVTRHIFNRE [HLA-DQB1_Y62_Y62H_YF] — lower, 0.43
- RHLQEYQDPLN [GFAP_Y349_L352P] — lower, 0.472
- VFGVSYDEFRF [CFTR_Y512_I507V_YF] — higher, 1.98
- KNNSIYVVANI [VNN1_Y134] — higher, 0.727
- RRGLLYDSDEE [MCM2_Y137] — higher, 1.08
- PRPAGYPSTVS [CACNA1C_Y1832] — lower, 0.331
- GGMTEYKLVVV [KRAS_Y4] — lower, 0.423
- HYEFKYVINAI [MAOA_Y268_C266F] — higher, 0.74
- SVMVPYEPPEV [TP53_Y220_V217M] — higher, 0.56
- DHAGEYGAEAL [HBA1_Y25_A20D] — lower, 0.403
- VKALKYKSMKI [ITGA11_Y1098_L1093V] — lower, 0.327
- DKATEYIQFMR [MAX_Y70_YF] — lower, 0.439
- AFPVSYSSSGA [RET_Y687] — lower, 0.392

These sequences were tested against Fes (UniProt P07332) in the same assay as above.
Chain of Fes (P07332 whole entry, looked up): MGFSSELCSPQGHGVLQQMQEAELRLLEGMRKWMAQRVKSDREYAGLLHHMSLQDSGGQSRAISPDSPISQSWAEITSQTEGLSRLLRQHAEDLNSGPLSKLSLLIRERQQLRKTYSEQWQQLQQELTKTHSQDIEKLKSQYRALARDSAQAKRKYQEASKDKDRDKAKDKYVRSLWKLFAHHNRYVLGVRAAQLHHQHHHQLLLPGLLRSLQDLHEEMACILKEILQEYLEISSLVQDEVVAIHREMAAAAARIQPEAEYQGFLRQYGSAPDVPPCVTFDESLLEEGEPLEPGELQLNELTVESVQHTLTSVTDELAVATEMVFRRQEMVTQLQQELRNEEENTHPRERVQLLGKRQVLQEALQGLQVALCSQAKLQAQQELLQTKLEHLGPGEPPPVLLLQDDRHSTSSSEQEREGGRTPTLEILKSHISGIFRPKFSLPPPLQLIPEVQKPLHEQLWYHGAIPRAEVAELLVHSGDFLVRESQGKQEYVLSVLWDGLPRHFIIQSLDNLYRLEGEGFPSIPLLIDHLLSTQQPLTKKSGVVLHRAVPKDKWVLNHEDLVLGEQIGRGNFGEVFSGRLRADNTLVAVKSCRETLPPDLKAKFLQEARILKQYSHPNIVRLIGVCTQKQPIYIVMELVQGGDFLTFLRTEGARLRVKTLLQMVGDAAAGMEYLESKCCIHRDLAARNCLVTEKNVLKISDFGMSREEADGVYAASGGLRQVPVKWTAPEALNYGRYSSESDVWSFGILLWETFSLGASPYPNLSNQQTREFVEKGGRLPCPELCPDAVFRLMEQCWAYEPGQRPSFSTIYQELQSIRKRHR

Point of comparison: LQEQNYLAVDS [FAM114A1_Y115], phosphorylation enrichment 2.5. Against it:
- KGNMFYENSFA [EGFR_Y113_R108K_YF] — lower, 0.705
- RAIGHYSATSK [FAM120A_Y328_Y327H] — lower, 0.97
- HGTKVYIDPFT [EPHB4_Y590] — lower, 0.705
- DGTVHYVDEKG [IFT140_Y216] — lower, 1.23
- SKEPFYVHCIK [MYO1D_Y586_R588H_YF] — lower, 1.07
- MKGDFYRSLAE [YWHAG_Y131_Y133S_YF] — lower, 0.73
- RHTRSYDYMEG [FGF7_Y56] — lower, 0.958
- ASKEPYYVHCI [MYO1D_Y585_R588H] — lower, 0.974
- HNMPIYEGFAL [ACTA1_Y168_V165M_YF] — higher, 5.34
- LTSKPYAFTAW [NDUFS1_Y236_R241W] — lower, 0.717
- CDYKKYGKGLR [ZNF445_Y433_Y428C] — lower, 0.576
- VRALTYCDLHK [KCNH2_Y827] — lower, 0.874
- HFGNNYRDVLQ [MACC1_Y803_YF] — lower, 1.72
- TPSGNYVACGG [GNB1_Y111_A106T] — lower, 0.8
- GHLYAYDWIRI [BEST1_Y227_S231R] — higher, 3.03
- RFVTRHIFNRE [HLA-DQB1_Y62_Y62H_YF] — lower, 1.12
- RHLQEYQDPLN [GFAP_Y349_L352P] — lower, 0.959
- VFGVSYDEFRF [CFTR_Y512_I507V_YF] — lower, 1.13
- KNNSIYVVANI [VNN1_Y134] — lower, 1.14
- RRGLLYDSDEE [MCM2_Y137] — lower, 1.13
- PRPAGYPSTVS [CACNA1C_Y1832] — lower, 0.493
- GGMTEYKLVVV [KRAS_Y4] — lower, 0.929
- HYEFKYVINAI [MAOA_Y268_C266F] — lower, 1.72
- SVMVPYEPPEV [TP53_Y220_V217M] — lower, 1.15
- DHAGEYGAEAL [HBA1_Y25_A20D] — lower, 0.892
- VKALKYKSMKI [ITGA11_Y1098_L1093V] — lower, 0.507
- DKATEYIQFMR [MAX_Y70_YF] — lower, 1.01
- AFPVSYSSSGA [RET_Y687] — lower, 0.541

The sequences below were run against Fyn (UniProt P06241) in the same assay as above.
Chain of Fyn (P06241 whole entry, looked up): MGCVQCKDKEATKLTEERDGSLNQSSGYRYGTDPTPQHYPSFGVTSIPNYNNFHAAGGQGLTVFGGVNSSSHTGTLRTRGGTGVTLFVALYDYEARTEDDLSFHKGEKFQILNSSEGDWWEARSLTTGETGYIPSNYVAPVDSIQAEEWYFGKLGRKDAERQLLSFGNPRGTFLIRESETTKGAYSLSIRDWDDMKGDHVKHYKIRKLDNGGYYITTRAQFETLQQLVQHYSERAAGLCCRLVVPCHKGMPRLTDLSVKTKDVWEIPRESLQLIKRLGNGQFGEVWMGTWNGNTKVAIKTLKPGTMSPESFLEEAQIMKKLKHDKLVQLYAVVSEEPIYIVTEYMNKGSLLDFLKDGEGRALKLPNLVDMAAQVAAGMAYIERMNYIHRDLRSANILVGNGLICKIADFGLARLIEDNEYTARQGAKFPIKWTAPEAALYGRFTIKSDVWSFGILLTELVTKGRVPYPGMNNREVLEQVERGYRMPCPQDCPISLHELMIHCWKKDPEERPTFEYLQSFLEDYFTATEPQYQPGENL

Point of comparison: HGTKVYIDPFT [EPHB4_Y590], phosphorylation enrichment 0.601. Against it:
- KGNMFYENSFA [EGFR_Y113_R108K_YF] — lower, 0.412
- RAIGHYSATSK [FAM120A_Y328_Y327H] — lower, 0.522
- DGTVHYVDEKG [IFT140_Y216] — higher, 0.671
- SKEPFYVHCIK [MYO1D_Y586_R588H_YF] — lower, 0.44
- MKGDFYRSLAE [YWHAG_Y131_Y133S_YF] — lower, 0.404
- RHTRSYDYMEG [FGF7_Y56] — lower, 0.561
- ASKEPYYVHCI [MYO1D_Y585_R588H] — lower, 0.482
- HNMPIYEGFAL [ACTA1_Y168_V165M_YF] — higher, 21.5
- LQEQNYLAVDS [FAM114A1_Y115] — higher, 1.47
- LTSKPYAFTAW [NDUFS1_Y236_R241W] — lower, 0.371
- CDYKKYGKGLR [ZNF445_Y433_Y428C] — lower, 0.364
- VRALTYCDLHK [KCNH2_Y827] — lower, 0.499
- HFGNNYRDVLQ [MACC1_Y803_YF] — higher, 0.614
- TPSGNYVACGG [GNB1_Y111_A106T] — lower, 0.447
- GHLYAYDWIRI [BEST1_Y227_S231R] — higher, 1.84
- RFVTRHIFNRE [HLA-DQB1_Y62_Y62H_YF] — higher, 0.651
- RHLQEYQDPLN [GFAP_Y349_L352P] — lower, 0.579
- VFGVSYDEFRF [CFTR_Y512_I507V_YF] — higher, 1.13
- KNNSIYVVANI [VNN1_Y134] — higher, 0.765
- RRGLLYDSDEE [MCM2_Y137] — higher, 1.29
- PRPAGYPSTVS [CACNA1C_Y1832] — lower, 0.43
- GGMTEYKLVVV [KRAS_Y4] — lower, 0.488
- HYEFKYVINAI [MAOA_Y268_C266F] — lower, 0.481
- SVMVPYEPPEV [TP53_Y220_V217M] — lower, 0.481
- DHAGEYGAEAL [HBA1_Y25_A20D] — lower, 0.427
- VKALKYKSMKI [ITGA11_Y1098_L1093V] — lower, 0.329
- DKATEYIQFMR [MAX_Y70_YF] — higher, 0.675
- AFPVSYSSSGA [RET_Y687] — lower, 0.344
